Source: the DeepSol protein solubility set

Assay: soluble on expression in E. coli; label from the status in PepcDB or PDB records

Sequence | soluble on expression in E. coli
AIAVGHKYPVKCLEVDKSKGRLVVSHRRAMAERQMEHLKTGALVEGTVQGVKPYGVFVDVFGTSGLLHISQISHDQVANIQSLFLPGEKVKCMVVSFDKQRGRISLSTKALEPHPGDMLRNKQLVYEKAEEMALSYNQRMDSPVRSKNTTSSSTDDIIAGLDIGSLDDLDPILFGTHTNSSNSNTHSDHLKQDSMNGTIPESDI | soluble
MRKRLITVKNLFEYVQENELVIQADMIITPGAKDIIRDKGIGVKYEKCCCESESKMKNEIKKDCQNFEKKVIDIITKEFKITDSETVQKILSKLKELL | not soluble
MKKLTIGLIGNPNSGKTTLFNQLTGSRQRVGNWAGVTVERKEGQFSTTDHQVTLVDLPGTYSLTTISSQTSLDEQIACHYILSGDADLLINVVDASNLERNLYLTLQLLELGIPCIVALNMLDIAEKQNIRIEIDALSARLGCPVIPLVSTRGRGIEALKLAIDRYKANENVELVHYAQPLLNEADSLAKVMPSDIPLKQRRWLGLQMLEGDIYSRAYAGEASQHLDAALARLRNEMDDPALHIADARYQCIAAICDVVSNTLTAEPSRFTTAV | soluble
MPVAATNSETAMQQVLDNLGSLPSATGAAELDLIFLRGIMESPIVRSLAKAHERLEETKLEAVRDNNLELVQEILRDLAQLAEQSSTAAELAHILQEPHFQSLLETHDSVASKTYETPPPSPGLDPTFSNQPVPPDAVRMVGIRKTAGEHLGVTFRVEGGELVIARILHGGMVAQQGLLHVGDIIKEVNGQPVGSDPRALQELLRNASGSVILKILPSYQEPHLPRQVFVKCHFDYDPARDSLIPCKEAGLRFNAGDLLQIVNQDDANWWQACHVEGGSAGLIPSQLLEEKRKAFVKRDLELTPNSGTLCGSLSGKKKKRMMYLTTKNAEFDRHELLIYEEVARMPPFRRKTLVLIGAQGVGRRSLKNKLIMWDPDRYGTTVPYTSRRPKDSEREGQGYSFVSRGEMEADVRAGRYLEHGEYEGNLYGTRIDSIRGVVAAGKVCVLDVNPQAVKVLRTAEFVPYVVFIEAPDFETLRAMNRAALESGISTKQLTEADLRRTVEESSRIQRGYGHYFDLCLVNSNLERTFRELQTAMEKLRTEPQWVPVSWVY | soluble
MLSKRIVTALNTAVKVQNAGIATTARGMAGASGSEVSKILEERILGTETGINLEETGKVLSIGDGIARVYGLKNIQAEEMVEFDSGIKGMAMNLDVDNVGVVVFGNDKVIREGDIVKRTGAIVDVPVGDGLLGRVVDALGNPIDGKGPIANARRSRVEVKAPGIIPRLSVREPMVTGVKAVDSLVPIGRGQRELIIGDRQTGKTAIAIDTIINQKRFNDAGDDKKKLFCIYVAVGQKRSTVAQIVKRLTDAGAMDYTIVVSATASDAAPLQFLAPYSGCAMGEHFRDNGKHALIIFDDLSKQAVAYRQMSLLLRRPPGREAYPGDVFYLHSRLLERAAKMNNSLGGGSLTALPVIETQAGDVSAYIPTNVISITDGQIFLETELFYKGVRPAINVGLSVSRVGSAAQTKAMKQVAGSMKLELAQYREVAAFAQFGSDLDASTQQLLNRGVRLTELLKQGQYVPMGIEEQVGVIYAGVKGYLDKVDPSAITKFEKEFLAHLRSSQQALLKTIREEGQISPQTDAQLKDVVVNFLATFKP | not soluble
MGSDKIHHHHHHMKTIEVLSLRKYFPIRKGFLVKKIVGYVKAVDDISFSVEKGKTFALVGESGCGKTTTAKTILRLTNPTAGRVVIDGDDTTYYFMKRRDAENYLETTYVDIFREMREKLSPDQIVDVLEDVDKKYAEIFFKEAKESEEKFYQILLDDIDEKRMKFRRKIQIVFQDPMSSLNPRMTVGDILTEPILFHGLAKTREEAVDMAKDLLKSVGLKEYHLERYPHQFSGGQRQRIAIARAISINPEIVILDEPTASLDVSVQAQVINLFLKLQEEKGFTYLFISHDLGLVRFISHEVGIMYLGRIVEMGNTDEIFDNPLHPYTQALLSAVPVPDPKVERTRKRIILRGGVPSPINRPTGCFFHPRCPYKMPVCEKEYPVMKEISPGHWVACHLHSS | not soluble
MGSDKIHHHHHHMSVFLRNAWYMACWSHEVPEGGFLARRLLDKPWVIWRKADGTPVIMADRCPHRFVPLSRGQRDGDMMRCGYHGLAFSSSGGCVHNPFTDEALPLARVEVLPVVEKHTGLWFWPGDADRADPALIPDFGFLDVERPLHRGHLKMDAGYELVTDNLMDLSHAEFIHRDSFGVNGSLLTCGQHEVVQDEGGAIWNNWTMPDSEPPSWAVAMLPEGARTDQWLHMRWNAPSCLALFLGLARSGTDRKDMVVPPMADPHILTPETVTSTHYFYTHEPTPEAHALLEKAFLEEDHPMLHAQQEAMGSADFWDLRPVVLPSDAGAIRVRRRMMQLRRAEAGLEEEAAA | not soluble
MRNMKSTSHESESGKLLSISSCRPREMVLQRYSLGMTVTADRHLADKREEFAVEDISTGIFASGYGQVGDGRSFSFHIEHRSLVVEIYRPRVAGPVPQAEDVVAMAVRGLVDIDLTDERSLAAAVRDSVASAAPVSR | not soluble
MKKVIGIGEYAVMKNPGVIVTLGLGSCVAVCMRDPVAKVGAMAHVMLPDSGGKTDKPGKYADTAVKTLVEELKKMGAKVERLEAKIAGGASMFESKGMNIGARNVEAVKKHLKDFGIKLLAEDTGGNRARSVEYNIETGKLLVRKVGGGEQLEIKEI | soluble
MSLDDLLKEVLKDKRLLEVLRHLKRANVDYGKSIMLNTKIPLTEVLDVLDKLESLGLIERVTGATLKNTEAKFKLSQEVHKHHTYYRLTRDGDHLLRRLDEKDIIDAYAEIVKDDEVGLKLLYYAEELHSDHALTYSKLLRKPLEEITPKIEELERMGLMEEKNSKVIKFRERRAKPEGHHHHHH | not soluble
SNNCKENFLTSRYNKPVDEKQYNIPGKVTITTLQNIPVIYKRIVGSYKELELTNPLSELFQYGMEHDLLDKDSSFPLTIYHSHPDITTADNQRASSCIIIKQNVKQLDSEEIGLMEIPSGLYGVIHFEIRQKEYPDAWDFVYGNWLPSSGYLPANSFPFEVYLNNPLEDPLQKHIVDIYIPIEPIN | not soluble
MSLTMKDVALEAGVSVGTVSRVINKEKGIKEVTLRKVQRAIKTLDYIPDNYARGMKKNRTETIALIIPSIWHPFFSEFAYHVEKELLKYNYKLFICNADSDSQNEIEYIEMLKQNKVDGIIGITYSDIDKYILSDLPFVSIDRHFSENVCYVTSANYKGGQTAAEELVRRDNKHLAFIGSINMYENETILRSKGFREKAKELGVDVYNFEMKEPLINPEDQIRIFLQSHKEIDGIFTINDMMALRVISVMKELGKIAPDDYQIIGFDGLKTSVDQSYLVSTIVQDIGMMAKESVAMILKMIKREEILEKRIVIPTYFWGDKTTKKEGHHHHHH | soluble
MKIGIIGATGKAGSRILKEALDRGHEVTAIVRNAAKITEENVKVLEKDVFSLTSNDLQAFDVVVNAFGAPAGHDHLHVDAGNVLIEAMKGAPNTKLVVVGGAGSLFVDEEKTTRVFETPGFPEEYLATAQNQGKNLEILQQTNDITWTFISPSALFALGKRTGSYKAGKDNLLVNAKGDSYVSYEDFAVAALDEIENPKHVNERFTVVSEAE | not soluble
EVQLVESGGGLVKPGGSLRLSCAASGFTFSSYSMNWVRQAPGKGLEWVSSISSSSSYISYADSVKGRFTISRDNAKNSLYLQMNSLRAEDTAVYFCARDYDFWSAYYDAFDVWGQGTMVTVSSASTKGPSVFPLAPSSKSTSGGTAALGCLVKDYFPEPVTVSWNSGALTSGVHTFPAVLQSSGLYSLSSVVTVPSSSLGTQTYICNVNHKPSNTKVDKKVEPKSCAADEVDHHHHHH | soluble
ASNITRINEIIEIAVNNKRKVCLLGKSMDVNVNISRKIGLMDIDSNDIVEVRDIKNYPDRSILILCTGSQGEDSAALNTMARGKHNWVSLKSTDTIIMSSNPIPGNYAAVENLLNELSKYGVTIFENSPNMKLHASGHATQQELQLMLNLVFPRYLIPIHGEYKMMRTIKNIAQECGINGDDVGLLANGQVMYLIDGKLYYSGEVINADPIYIESRNSSPDLARVIKQRQILSREGMFAVIVVFDKNNNILGMPTLITRGCFFALDSSPLMTKITHSIKRGLENVIQNKRFNTREQMIKELKRVCKETVSYFIWKNKSRNPLISTVLSWV | soluble
MSLADPIKIGVIAEAQAIAGASIPQAAQLAAEEINAKGGIDGRKIEIVSYDNHSSSADSVRAFQRAVNEDKVNAVIASYISEVVLALMPWASRLKTPFVTPGAASNEITKAINKDYEKNKYTFHGYLTSGELAQSVCDAAKDLLVDARQMKSAVIMSEDAAWTKPLDVGYQECLPKVGLKVLDHIRFSPDTTDFTPIFNKIEGSKPDVIITGISHVGVQPTVQWKNQQVPIPMFGIASQATNETFGKDTNNASDGVLYQGVSGPGVAVTSKSVPFAENFKKKYGNYPSYAGYTAYDEVYYIAEAVKRAGSTDGEKLVEALEKTDYEGTIGRVQFYGKDEPFTHGLKYGKGLLTGLMLQWQDGKQVAVWPPEVAKAEGHHHHHH | soluble
MVYSVPMMCAQDLRRSAMLDVVVAGGGYVGLSAAVAIKQAAPHLNVQVIEAAPDDVWKKDVRASAVIAAATRMLDVFGIWNEIEPEAQPIHKMVVTDSKTADPVRPVFLTFDGAVEEGRPFAHMVPNVAMVSALRGLCERIGIKIRHGISVSGFTAGPQSTAITLSDGTSLEARLLIACDGVRSALRDMAGIKTVHWAYDQSGIVTTVEHERPHEGCAEEHFLPSGPFAVLPLKGNRSSLVWTERTADAVRLVASDDLVFEEELERRFGHKLGPVRPVGPRRAFPLGLTLARSFVAPRFALAGDAAHGIHPISGQGLNLGFKDVAALAETVVEADRLGLDIGSLNVLERYQSWRRFDTLRMGVTTDVLNRLFSNDVGPIRVMRDFGLGVVDRLPGLKSYFIGQAAGTTDANAPRLLAGEALLEHHHHHH | not soluble
MAGDPMNIDYSVLKKYPLCDRCFGRLYGKLIRSSNFDRGHALKLAKAIELEEDLRTALEKMNETPENSEVNPTDLEKLEEIKELMYALHKTGTSGIKLDLIDDIEKYETKFKNEAEYEKNEECDELCPWCKGIFEPENIEKVAENVVEALSEYEFDSFLVGTKLPKRFKELENEIETPFMESIRQEFGRELGKVVVPLIKRRVDKENPDIVVMVNPYNQKVTLQVNPVFIKGRYKKLVRGIPQSHWDCRSCRGKGCEKCNFTGKQYMTSVEEIIAEPFMDVMKGSSEALHGAGREDIDVRMLGHGRPFVIEIKEPKIRKVNLEELASKVNESGNVEIINVEYGVKKDVHFFKNEPHKKTYLAHVECEEKVSNEEVAELVKKLEDLTIDQRTPDRVSHRRADLVRVRKVYKAWPHMIDDYNFELKIFCDGGLYIKELINSDEGRTTPSVSELLNKKCICKFLDVLDVHDYEDAENILEHHHHHH | soluble
MDIKACYQNAKALLEGHFLLSSGFHSNYYLQSAKVLEDPKLAEQLALELAKQIQEAHLNIECVCSPAIGGILAGYELARALGVRFIFTERVDNTMALRRGFEVKKNEKILVCEDIITTGKSAMECAKVLEEKGAQIVAFGALANRGICKRAHSHLKAQEGACLPSHLPLFALEDFVFDMHKPSSCPLCATSVAIKPGSRGN | not soluble
MGSDKIHHHHHHMAKCNAVAGFNALNGVQLNLFTTDELKAIHYATMEVLMDPGIQVSDPEARQIFKENGCEVNEQTNVVKIPEYLVRRALQLAPSRFVLWGRDKKYNTVQEAGGKVHWTCFGTGVKMCKYQEGKYVTVDSVEQDIADIAKLCDWAENIDYFSLPVSARDIAGQGAQDVHETFTPLTNTAKHFHHIDPVGENVEYYRDIVNAYYGGDEEEARKKPIFSMLLCPTSPLELSVNACQVIIKGARFGMPVNVLSMAMSGGSSPVYLAGTLVTHNAEVLAGITLAQLTVPGAKVWYGSSTTTFDLKKGTAPVGSPELGLISASVAKLAQFYGLPAFVAGT | not soluble
MTRPKLELSDDEWRQKLTPQEFHVLRRAGTERPFTGEYTDTTTAGIYQCRACGAELFRSTEKFESHCGWPSFFDPKSSDAVTLRPDHSLGMTRTEVLCANCDSHLGHVFAGEGYPTPTDKRYCINSISLRLVPGSV | soluble
